Measured values from the nanobody polyreactivity screen of Harvey et al. (2022).

Assay: yeast display, Sf9 membrane polyspecificity reagent, FACS + sequencing; frameworks hold sequencing errors
How it was run: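 In a synthetic yeast display library (Saccharomyces cerevisiae BJ5465), nanobody expression was induced with galactose for 36–48 hours. FACS gates were set low and high (top ~1%) using anti-HA fluorescence for expression and streptavidin fluorescence for binding of the Sf9 membrane reagent. Each polyreactivity label is drawn from the gate of origin.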

## QVQLVESGGGLVQAGGSLRLSCAASGSIFQDYTMGWYRQAPGKDRELVAAITDNGGSTYYADSVKGRFTISRDNAKNTVYLQMNSLKPEDTAVYYCAKDWDYSAPGYYLYGYWGQGTQVTVSS
  polyreactivity (PSR sort gate): low polyreactivity

## QVQLVESGGGLVQAGGSLRLSCAASGSIFQFSAKGWYRQAPGKERELVAGINTSGGSTYYADSVKGRFTISRDNAKNTVYLQMHSLKPEDTAVYYCMARSRYDTGPQRGYDYWGQGTQVTVSS
  polyreactivity (PSR sort gate): low polyreactivity

## QVQLVESGGGLVQAGGSLRLSCAASGSIFQFYTMGWYRQAPGKERELVAAISSTGSTNYADSVKGRFTISRDNAKNTVYLQMNSLKPEDTAVYYCAAVGTYLAGYQFDYWGQGTQVTVSS
  polyreactivity (PSR sort gate): low polyreactivity

## QVQLVESGGGLVQAGGSLRLSCAASGSIFQGNAMGWYRQAPGKERELVAAISSRGGTTYYADSVKGRFTISRDNAKNTVYLQMNSLKPEDTAVYYCARDSGYYWYYRYGYWGQGTQVTVSS
  polyreactivity (PSR sort gate): high polyreactivity

## QVQLVESGGGLVQAGGSLRLSCAASGSIFQGYAMGWYRQAPGKERELVAAITSSGGSTYYADSVKGRFTISRDNAKNTVYLQMNSLKPEDTAVYYCAARGYSHVASRLYYYWGQGTQVTVSS
  polyreactivity (PSR sort gate): high polyreactivity

## QVQLVESGGGLVQAGGSLRLSCAASGSIFQGYAMGWYRQAPGKERELVAVITSRVGRTYYADSVKGRFTISRDNAKNTVYLQMNSLKPEDTAVYYCAAKLYGGWYRDFAASGMDYWGQGTQVTVSS
  polyreactivity (PSR sort gate): high polyreactivity

## QVQLVESGGGLVQAGGSLRLSCAASGSIFQIYAMGWYRQAPGKERELVATISSGGRTTYADSVKGRFTISRDNAKNSVYLQMNSLKPEDTAVYYCAAKLEWLSHYYYWGQGTQVTVSS
  polyreactivity (PSR sort gate): low polyreactivity

## QVQLVESGGGLVQAGGSLRLSCAASGSIFQKYAMGWYRPAPGKERELVAAISSGGGRTYYADSVKGRFTISRDNAKNTVYLQMNSLKPEDTAVYYCAARGSYTSIFDYWGQGTQVTVSS
  polyreactivity (PSR sort gate): high polyreactivity

## QVQLVESGGGLVQAGGSLRLSCAASGSIFQLNAMGWYRQAPGKERELVAAITWSGDSTYYADSVKGRFTISRDNAKNTVSLQMNSRKPEDTAVYYCAADVLTTPPPREFEYWGQGTQVTVSS
  polyreactivity (PSR sort gate): high polyreactivity

## QVQLVESGGGLVQAGGSLRLSCAASGSIFQPNMGWYRQAPGKERELVASITTGTTKYADSVKGRFTISRDNAKNTVYLQMNSLKPEDTAVYYCAADLQATVYLIFGYWGQGTQVTVSS
  polyreactivity (PSR sort gate): low polyreactivity

## QVQLVESGGGLVQAGGSLRLSCAASGSIFQPYAMGWYRQAPGKEWELVAAISRGGTTYYADSVKGRFTISRDNAKNTVYLQMNSLNPEDTAVYYCAVKGYRYVTRYDYWGQGTQVTVSS
  polyreactivity (PSR sort gate): high polyreactivity

## QVQLVESGGGLVQAGGSLRLSCAASGSIFQRNAMGWYRQAPGKERELVAAISWSGGSTYYADSVKGRFTISRDNAKNSVSLQMNSVKPEDTAVYYCARYYRPYDWGQGTQVTVSS
  polyreactivity (PSR sort gate): high polyreactivity

## QVQLVESGGGLVQAGGSLRLSCAASGSIFQSYAKGWYRQAPGKERELVAAISRGGSTYYADSVKGRFTISRDNAKNTVYLQMNSLKPEDTAVYYCAAGSGGGKYLYYYWGQGTQVTVSS
  polyreactivity (PSR sort gate): low polyreactivity

## QVQLVESGGGLVQAGGSLRLSCAASGSIFQSYAMGWYRQAPGKERELVAAISYSGDGTFYADSVKGRFTISRDNAKNTVYLQMNSLKPEDTAVYYCAASSTGYGGSTYYYWGQGTQVTVSS
  polyreactivity (PSR sort gate): low polyreactivity

## QVQLVESGGGLVQAGGSLRLSCAASGSIFQYNAMGWYRQAPGKRELVAAINRSGGSTYYADSVKGRFTISRDYAKNTVYLQMNSLKPEDTAVYYCAAVRYDRARGSPYPDRVGVYSWGQGTQVTVSS
  polyreactivity (PSR sort gate): high polyreactivity

## QVQLVESGGGLVQAGGSLRLSCAASGSIFQYNDMGWYRQQPGKEREFVADISSSGGSTYYADSVKGRFTISRDTAKNTVYLQMNSLKPEDTEVYYCNADPGYDFYRDEYWGQGTQVTVSS
  polyreactivity (PSR sort gate): low polyreactivity

## QVQLVESGGGLVQAGGSLRLSCAASGSIFQYTMGWYRQAPVKEMELVAAITRSGSSTYYADSVKGRFTISRDNAKNTVYLQMNSLKPEDTAVYYCAHNIRRVLGYGSWGQGTQVTVSS
  polyreactivity (PSR sort gate): high polyreactivity

## QVQLVESGGGLVQAGGSLRLSCAASGSIFQYYAMGWYRQAPGKERELVAAISSGDTTNYADSVKGRFTISRDNAKNTVYLQMNSLKPEDTAVYYCNAEGGWYDWDDYWGQGTQVTVSS
  polyreactivity (PSR sort gate): low polyreactivity

## QVQLVESGGGLVQAGGSLRLSCAASGSIFRANAMGWYRQAPGKERELVAAISRRGGNTYYADSVKGRFTISRDNAKNTVYLQMNSLKPEDTAVYYCAADRSEYDYWGQGTQVTVSS
  polyreactivity (PSR sort gate): high polyreactivity

## QVQLVESGGGLVQAGGSLRLSCAASGSIFRAYAMGWDRQAPGKERELVATISGSGGSRSYADSVKGRFTISRDNAKNTVDLQMNSLKPEDTAVYYCARDRYYKYTSYDYWGQGTQVTVSA
  polyreactivity (PSR sort gate): low polyreactivity

## QVQLVESGGGLVQAGGSLRLSCAASGSIFRAYAMGWYRQAPGKEMELVAAISSGVSTNYADSVKGRFTISRDNAKNTVYLQMNSLKPEDTAVYYCNTDKYSESYRSYEYWGQGTQVTVSS
  polyreactivity (PSR sort gate): low polyreactivity

## QVQLVESGGGLVQAGGSLRLSCAASGSIFRAYAMGWYRQAPGKERELVAAISWGGGSTSYADSVKGRFTISRDNAKNTVYLQMNSLNPEDTAVYYCAARFIWPARYYSWGQGTQVTVSS
  polyreactivity (PSR sort gate): high polyreactivity

## QVQLVESGGGLVQAGGSLRLSCAASGSIFRAYAMGWYRQAPGKERELVAAITGNGARTYYADSVKGRFTISRDNAKNTVYLQMNSLKPEDTAVYYCAKRGNRQHRWWYDYWGQGTQVTVSS
  polyreactivity (PSR sort gate): low polyreactivity

## QVQLVESGGGLVQAGGSLRLSCAASGSIFRDYVMGWYRQAPGKERELVAAISGNDGSTYYADSVKGRFTISRDNAKNTVYLQMNSLKPEDTAVYYCNADEASTVPQFYSYLDFDYWGQGTQVTVSS
  polyreactivity (PSR sort gate): low polyreactivity

## QVQLVESGGGLVQAGGSLRLSCAASGSIFRFYAMGWYRQAPWKERELVAGITWSGASTYYADSVKGRFTISRDNAKNTVYLQMNSLKPEDNAVYYCAAKSLIVRYDSWGQGTQVTVSS
  polyreactivity (PSR sort gate): high polyreactivity

## QVQLVESGGGLVQAGGSLRLSCAASGSIFRGNALGWYRQAPGKERELVAAITGSGGNTYYADSVKGRFTISRDNAKNTVYLQMNSLKPEDTAVYYCNAQRYRVVVYNSHGWQTRNYWGQGTQVTVSS
  polyreactivity (PSR sort gate): low polyreactivity

## QVQLVESGGGLVQAGGSLRLSCAASGSIFRGNAMGWYRQAPGKERELVAAITYNDGGTYYADSVKGRFTISRDNAKNTVYLQMNSLKPEDTAVYYCAAVGTGNKSILYDYWGQGTQVTVSS
  polyreactivity (PSR sort gate): low polyreactivity

## QVQLVESGGGLVQAGGSLRLSCAASGSIFRGYGMGWYRQAPGKERELVAANNYSGGSTYYADSVKGRFTISRDNAKNTVYLQMNSLKPEDTAVYYCNKVYYRQRGEYYYWGQGTQVTVSS
  polyreactivity (PSR sort gate): high polyreactivity

## QVQLVESGGGLVQAGGSLRLSCAASGSIFRGYTMGWYRQAPGKERELFAAISTRGGSTYYADSVKGRFTISRDNAKNTVYLQMNSLKPEDTAVYYCNARSRGRASGYDYWGQGTQVTVSS
  polyreactivity (PSR sort gate): high polyreactivity

## QVQLVESGGGLVQAGGSLRLSCAASGSIFRGYTMGWYRQATGKERELVATISWSGGSTYYADSVKGRFTISRDNAKNTVYLQMNCLKPEDTAVYYCAAVWYLGIPYDYWGQGTQVTVSS
  polyreactivity (PSR sort gate): high polyreactivity

## QVQLVESGGGLVQAGGSLRLSCAASGSIFRGYVMGWYRQAPGKERELVAAIRWRGGDTRYADSVKGRFTISRDNAKNTVYLQMNSLKPEDTAVYYCAAQYRKTQYQKKYDYWGQGTQVTVSS
  polyreactivity (PSR sort gate): high polyreactivity

## QVQLVESGGGLVQAGGSLRLSCAASGSIFRKNAMGWYRQAPGKERELVAAITCTGRTTYADSVKGRFTISRDNAKNTVYLQMNSLKPEDTAVYYCAADVNYYQHRLYYWGQGTQVTVSS
  polyreactivity (PSR sort gate): low polyreactivity

## QVQLVESGGGLVQAGGSLRLSCAASGSIFRKNAMGWYRQAPGKERELVAAITYRTGSTYYADSVKGRFTISRDNAKNTVYLQMNSLKPEDTAVYYCAAQTWGSGYGHIGRRRHDYWGQGTQVTVSS
  polyreactivity (PSR sort gate): high polyreactivity

## QVQLVESGGGLVQAGGSLRLSCAASGSIFRKYAMGWYRQAPGKEREFVAAISRSGGGTYYADSVKGRFTISRDNAKNTVYLQMNSLKPEDTAVYYCAAEFRTGLQGEHYYWGQGTQVTVSS
  polyreactivity (PSR sort gate): low polyreactivity

## QVQLVESGGGLVQAGGSLRLSCAASGSIFRLNALGWYRQAPGKERELVAAITWSDSSTYYADSVKGRFTISRDNAKNTVYLQMNSLKQEDTAVYYCAADPQSYKYDYWGQGTQVTVSS
  polyreactivity (PSR sort gate): low polyreactivity

## QVQLVESGGGLVQAGGSLRLSCAASGSIFRLNAMGWYRQAPGKERELVAAIDGSDGSTYYADSVKGRFTISRDNAKNTVYLQMNSLKPEDTAVYYCAAERGYPTDYYSGSDDYWGQGTQVTVSS
  polyreactivity (PSR sort gate): low polyreactivity

## QVQLVESGGGLVQAGGSLRLSCAASGSIFRLNAMGWYRQAPGKERELVAAITSSGGNTYYADSVKGRFTISRDNAKNTVYLQMNSLKPEDTAVYYCATRAYARWYGYWGQGTQVTVSS
  polyreactivity (PSR sort gate): low polyreactivity

## QVQLVESGGGLVQAGGSLRLSCAASGSIFRNNAMGWYIQAPGKERELVASITRRGGSTYYADSVKGRFTISRDNAKNTVYLQMNSLKPEYTAGSYCAATTQHRYTLNYWGQGTQVTVSS
  polyreactivity (PSR sort gate): high polyreactivity

## QVQLVESGGGLVQAGGSLRLSCAASGSIFRNYAMGWYRQAPGKEREFVAAISGGGGSTYYADSVKGRFTISRDNAKNTVYLQMNSLKPEDTAVYYCARVRYYGALKLYAYDHWGQGTQVTVSS
  polyreactivity (PSR sort gate): high polyreactivity

## QVQLVESGGGLVQAGGSLRLSCAASGSIFRPNDMGWYRQAPGKERELVAAISTGGSTSYADSVKGRFTISRDNAKNTVYLQMNSLKPEDTAVYYCAAVYYLTDWYGVWYSFDYWGQGTQVTVSS
  polyreactivity (PSR sort gate): low polyreactivity

## QVQLVESGGGLVQAGGSLRLSCAASGSIFRPYAMGRYRQAPGKERELVAAISWRSGRTYYADSVKGRFTISRDNAKNTVYLQMNSLKPEDTAVYYCAADLASYAYRYDYWGQGTQVTVSS
  polyreactivity (PSR sort gate): high polyreactivity

## QVQLVESGGGLVQAGGSLRLSCAASGSIFRPYAMGWYRQAPGKERELVAAITWSGGRTYYADSVKGRFTISRDNAKNTVYLQMNSLKPEDTAVYYCAADDSEGFDYWGQGTQVTVSS
  polyreactivity (PSR sort gate): high polyreactivity

## QVQLVESGGGLVQAGGSLRLSCAASGSIFRQYAMGWYRQAPGKERELVAAITYSGGNTYYADSVKGRFTISRDNAKNTVYVQMNSLKPEDTAVYYCAADYGSRSWEYNYWGQGTQVTVSS
  polyreactivity (PSR sort gate): low polyreactivity
